In paper doi:10.1101/2024.08.06.606761 (bioRxiv, 2024):

What was measured:
Assay in all cases: fluorescence polarisation
[1] = biological target: talin-1 (TLN1) PTB domain, tag cleaved (FP) (human)
[2] = biological target: SARS-CoV-2 NSP3 UBl1 domain, tag cleaved (FP) (SARS-CoV-2)
[3] = biological target: SARS-CoV-2 NSP3 ADRP domain, tag cleaved (FP) (SARS-CoV-2)
[4] = biological target: SARS-CoV-2 NSP3 SUD-M domain, tag cleaved (FP) (SARS-CoV-2)
[5] = biological target: SARS-CoV-2 non-structural protein (NSP) 9, tag cleaved (FP) (SARS-CoV-2)
[6] = biological target: G3BP1 NTF2-like domain, tag cleaved (FP) (human, UniProt Q13283 11-133)
Sequence of G3BP1 NTF2-like domain, tag cleaved (FP) (Q13283 11-133): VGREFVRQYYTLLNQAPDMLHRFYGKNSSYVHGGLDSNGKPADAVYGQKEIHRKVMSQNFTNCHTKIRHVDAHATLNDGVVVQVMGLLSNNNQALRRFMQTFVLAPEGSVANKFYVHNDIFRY

Sequence of talin-1 (TLN1) PTB domain, tag cleaved (FP) (human) (Q9Y490 whole entry, the tested form may be a part): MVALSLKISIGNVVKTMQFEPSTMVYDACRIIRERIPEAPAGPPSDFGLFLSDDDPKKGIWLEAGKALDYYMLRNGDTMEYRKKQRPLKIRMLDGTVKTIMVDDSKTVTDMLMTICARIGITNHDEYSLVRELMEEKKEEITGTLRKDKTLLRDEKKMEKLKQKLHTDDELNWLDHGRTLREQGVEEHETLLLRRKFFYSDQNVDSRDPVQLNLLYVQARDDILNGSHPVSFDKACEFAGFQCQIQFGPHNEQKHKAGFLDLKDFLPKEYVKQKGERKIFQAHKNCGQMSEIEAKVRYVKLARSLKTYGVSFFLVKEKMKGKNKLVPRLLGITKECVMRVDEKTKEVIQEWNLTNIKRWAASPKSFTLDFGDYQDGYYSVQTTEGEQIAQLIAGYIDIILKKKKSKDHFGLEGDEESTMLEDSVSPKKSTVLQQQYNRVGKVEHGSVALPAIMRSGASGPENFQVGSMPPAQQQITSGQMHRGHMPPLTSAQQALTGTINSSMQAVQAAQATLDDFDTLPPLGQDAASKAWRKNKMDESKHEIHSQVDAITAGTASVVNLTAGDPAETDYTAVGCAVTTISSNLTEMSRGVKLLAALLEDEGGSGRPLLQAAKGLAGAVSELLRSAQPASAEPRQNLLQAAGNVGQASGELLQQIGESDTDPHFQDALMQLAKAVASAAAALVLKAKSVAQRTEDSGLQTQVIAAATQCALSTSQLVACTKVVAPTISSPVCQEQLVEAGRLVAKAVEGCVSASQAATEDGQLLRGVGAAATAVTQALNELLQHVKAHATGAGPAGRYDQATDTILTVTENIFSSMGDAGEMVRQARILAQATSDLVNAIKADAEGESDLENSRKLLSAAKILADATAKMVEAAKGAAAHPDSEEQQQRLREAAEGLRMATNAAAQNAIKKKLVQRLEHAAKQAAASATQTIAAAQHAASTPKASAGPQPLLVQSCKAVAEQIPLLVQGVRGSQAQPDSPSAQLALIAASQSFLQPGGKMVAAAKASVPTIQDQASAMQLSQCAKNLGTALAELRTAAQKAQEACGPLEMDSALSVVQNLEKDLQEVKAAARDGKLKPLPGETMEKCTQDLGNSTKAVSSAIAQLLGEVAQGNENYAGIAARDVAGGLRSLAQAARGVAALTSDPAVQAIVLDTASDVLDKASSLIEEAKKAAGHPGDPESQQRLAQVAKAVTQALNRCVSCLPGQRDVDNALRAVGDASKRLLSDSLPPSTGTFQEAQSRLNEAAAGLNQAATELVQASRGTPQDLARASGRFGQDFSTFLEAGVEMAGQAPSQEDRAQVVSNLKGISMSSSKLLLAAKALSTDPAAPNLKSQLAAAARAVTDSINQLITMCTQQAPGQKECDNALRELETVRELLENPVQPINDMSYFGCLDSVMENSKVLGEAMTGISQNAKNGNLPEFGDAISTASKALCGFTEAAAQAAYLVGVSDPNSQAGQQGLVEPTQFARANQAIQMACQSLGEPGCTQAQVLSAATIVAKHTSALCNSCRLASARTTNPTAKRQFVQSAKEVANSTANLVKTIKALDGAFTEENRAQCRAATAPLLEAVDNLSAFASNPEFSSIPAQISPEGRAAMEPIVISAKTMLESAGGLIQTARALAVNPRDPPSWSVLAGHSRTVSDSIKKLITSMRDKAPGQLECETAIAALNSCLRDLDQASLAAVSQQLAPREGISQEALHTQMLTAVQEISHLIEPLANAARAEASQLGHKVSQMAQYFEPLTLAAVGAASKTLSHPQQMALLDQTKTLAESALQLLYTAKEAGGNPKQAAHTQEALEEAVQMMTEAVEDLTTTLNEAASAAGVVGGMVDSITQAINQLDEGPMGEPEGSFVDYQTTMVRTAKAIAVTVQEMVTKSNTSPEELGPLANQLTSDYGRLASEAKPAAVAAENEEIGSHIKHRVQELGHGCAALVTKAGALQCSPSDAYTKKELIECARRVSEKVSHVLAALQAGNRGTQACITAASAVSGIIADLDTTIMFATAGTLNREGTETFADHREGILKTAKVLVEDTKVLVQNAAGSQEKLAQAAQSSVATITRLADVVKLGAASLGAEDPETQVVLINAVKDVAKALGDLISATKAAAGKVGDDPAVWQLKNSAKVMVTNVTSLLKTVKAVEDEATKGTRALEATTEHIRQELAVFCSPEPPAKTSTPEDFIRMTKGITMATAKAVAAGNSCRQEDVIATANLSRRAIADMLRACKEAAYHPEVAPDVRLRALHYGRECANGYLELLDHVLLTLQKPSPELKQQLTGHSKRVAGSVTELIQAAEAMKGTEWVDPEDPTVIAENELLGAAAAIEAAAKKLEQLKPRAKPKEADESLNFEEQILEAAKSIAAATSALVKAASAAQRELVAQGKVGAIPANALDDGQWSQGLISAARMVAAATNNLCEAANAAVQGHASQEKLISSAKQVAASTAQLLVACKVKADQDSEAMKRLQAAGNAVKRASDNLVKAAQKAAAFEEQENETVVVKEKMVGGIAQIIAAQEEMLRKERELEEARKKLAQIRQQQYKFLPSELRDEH

Molecule	Kd [1] [µM]	further results
TPTE2 92-107 F97W peptide (from UniProt Q6XPS3 92-107)	0.1	–
wild-type TPTE2 92-107 peptide	4.9	–
TPTE2 92-107 Y103W peptide (from UniProt Q6XPS3 92-107)	22	–
TPTE2 92-107 I104A peptide (from UniProt Q6XPS3 92-107)	18	–
TPTE2 92-107 F97Y peptide (from UniProt Q6XPS3 92-107)	150	–
wild-type NCOA2 1073-1088 peptide (from UniProt Q15596 1073-1088)	–	Kd [2]: 39 µM
wild-type MBOAT1 16-31 peptide (from UniProt Q6ZNC8 16-31)	–	Kd [3]: 49 µM
TPTE2 92-107 S100N peptide (from UniProt Q6XPS3 92-107)	1.7	–
QFTEEDLHFVLYGVTPSL (modifications not checked) [wild-type PRDM14 peptide (FP)]	–	Kd [4]: 74 µM
QGAWLGAPEPWEPL (modifications not checked) [wild-type NOTCH4 peptide (FP)]	–	Kd [5]: 72 µM
APRITFGGPSDSTGS [wildtype SARS-CoV-2 N 12-26 peptide]	–	Kd [6]: 2.3 µM
